# Reference: patent JP2012050437A (dated 2012)
# Numbering of substitutions follows the chain as printed.
# B1: murine monoclonal antibody 12A11 (isotype IgG1) (antibody, V domains shown)
# VH: QVTLKESGPGILKPSQTLSLTCSFSGFSLSTSGMSVGWIRQPSGKGLEWLAHIWWDDDKYYNPSLKSRLTISKDTSRNQVFLKITSVDTADTATYYCARRTTTADYFAYWGQGTTLTVSS
# VL: DVLMTQTPLSLPVSLGDQASISCRSSQSIVHSNGNTYLEWYLQKPGQSPKLLIYKVSNRFSGVPDRFSGSGSGTDFTLKISRVEAEDLGIYYCFQSSHVPLTFGAGTKLELK
# notes: Mouse IgG1 from the hybridoma; also called mAb 12A11; m12A11
# B2: humanized 12A11 antibody, version 6.1 (antibody, V domains shown)
# VH: QVQLVESGGGVVQPGRSLRLSCAFSGFTLSTSGMSVGWIRQAPGKGLEWVAHIWWDDDKYYNPSLKSRFTISKDTSKNTVYLQMNSLRAEDTAVYYCARRTTTADYFAYWGQGTTVTVSS
# VL: DVVMTQSPLSLPVTPGEPASISCRSSQSIVHSNGNTYLEWYLQKPGQSPQLLIYKVSNRFSGVPDRFSGSGSGTDFTLKISRVEAEDVGVYYCFQSSHVPLTFGQGTKLEIK
# notes: Variable regions only; also called h12A11v6.1; バージョン6.1
# B3: humanized 12A11 antibody, version 5.3 (antibody, V domains shown)
# VH: B2 VH with V50L, F69L, V80L
# VL: B2 VL
# notes: Variable regions only; also called h12A11v5.3; バージョン5.3
# B4: humanized 12A11 antibody, version 6.4 (antibody, V domains shown)
# VH: B2 VH with T28S, V80L
# VL: B2 VL
# notes: Variable regions only; also called h12A11v6.4; バージョン6.4
# B5: humanized 12A11 antibody, version 5.5 (antibody, V domains shown)
# VH: B2 VH with T28S, F69L, V80L
# VL: B2 VL
# notes: Variable regions only; also called h12A11v5.5; バージョン5.5
# B6: humanized 12A11 antibody, version 5.6 (antibody, V domains shown)
# VH: B2 VH with T28S, V50L, V80L
# VL: B2 VL
# notes: Variable regions only; also called h12A11v5.6; バージョン5.6
# B7: humanized 12A11 antibody, version 5.2 (antibody, V domains shown)
# VH: B2 VH with V50L
# VL: B2 VL
# notes: Variable regions only; also called h12A11v5.2; バージョン5.2
# B8: humanized 12A11 antibody, version 3 (antibody, V domains shown)
# VH: B2 VH with K73R, T75N, V80L
# VL: B2 VL
# notes: Variable regions only; tested in conditioned medium of COS cells; also called h12A11v3; v3
# B9: humanized 12A11 antibody, version 5.4 (antibody, V domains shown)
# VH: B2 VH with T28S
# VL: B2 VL
# notes: Variable regions only; also called h12A11v5.4; バージョン5.4
# B10: humanized 12A11 antibody, version 2.1 (antibody, V domains shown)
# VH: B2 VH with T75N, V80L
# VL: B2 VL
# notes: Variable regions only; tested in conditioned medium of COS cells; also called h12A11v2.1; v2.1
# B11: humanized 12A11 antibody, version 5.1 (antibody, V domains shown)
# VH: B2 VH with F69L
# VL: B2 VL
# notes: Variable regions only; also called h12A11v5.1; バージョン5.1
# B12: humanized 12A11 antibody, version 6.3 (antibody, V domains shown)
# VH: B2 VH with V50L, V80L
# VL: B2 VL
# notes: Variable regions only; also called h12A11v6.3; バージョン6.3
# B13: humanized 12A11 antibody, version 6.2 (antibody, V domains shown)
# VH: B2 VH with F69L, V80L
# VL: B2 VL
# notes: Variable regions only; also called h12A11v6.2; バージョン6.2
# B14: recombinant mouse 12A11 Cγ2a (isotype-switched 12A11) (antibody, V domains shown)
# VH: B1 VH
# VL: B1 VL
# modifications: biotin conjugated (in the ELISA and the competition assay)
# notes: also called m12A11Cγ2a; biotin-conjugated m12A11Cγ2a
# Target: T1, aggregated synthetic Aβ1-42 (human, UniProt P05067 672-713)
# T1 construct: domain: Aβ1-42; Synthetic peptide, aggregated, coated for ELISA; also called 凝集Aβ1−42; Aβ(1-42) aggregate
# Experiment: ELISA on aggregated synthetic Aβ1-42
row,binding result,Binder
1,binds,B1

# Target: T1, aggregated synthetic Aβ1-42
# Experiment: quantitative Aβ(1-42) aggregate binding assay, COS conditioned medium
row,binding result,Binder
1,binds,B2
2,binds,B3
3,binds,B4
4,binds,B5
5,binds,B6
6,binds,B7
7,binds,B8
8,binds,B9
9,binds,B10
10,binds,B11
11,binds,B12
12,binds,B13

# Target: T1, aggregated synthetic Aβ1-42
# Experiment: ELISA on aggregated Aβ1-42, streptavidin-HRP as reporter; confirmed (sentence runs on into paragraph 399)
row,binding result,Binder
1,binds,B14
